Several values for one entry are separate records, joined by “and”; a condition that tells them apart may be missing. Identical values can stand only once.
B1: monoclonal antibody 4E2 (antibody, V domains shown)
VH: QVQLHQPGSVLVRPGASVKLSCKASGYTFTSSWMHWAKQRPGQGLEWIGEIHPKSGNTNYNENFKGKATLTVDTSSSTAYVDLSSLASEDSAVYYCARSGGTYYYAMDSWGQGTSVTVSS
VL: DIQMTQTTSSLSASLGDRVTISCRASQDTSNYLNWYQQKPDGTVKLLIYYTSRLHSGVPSRFSGSGSGTDFSLTINTLEQEDFATYFCQQGNTSPYTFGGGTKLEIK

Columns and labels:
[1] = target: p15 protein of African swine fever virus (African swine fever virus) (UniProt Q65179); assay: cryo-EM structure
[2] = target: p15 protein of African swine fever virus (African swine fever virus, UniProt Q65179); assay: SPR; settings: both partners purified
[3] = target: T1, p15 protein of African swine fever virus (African swine fever virus, UniProt Q65179 1-158); assay: SPR
T1 chain: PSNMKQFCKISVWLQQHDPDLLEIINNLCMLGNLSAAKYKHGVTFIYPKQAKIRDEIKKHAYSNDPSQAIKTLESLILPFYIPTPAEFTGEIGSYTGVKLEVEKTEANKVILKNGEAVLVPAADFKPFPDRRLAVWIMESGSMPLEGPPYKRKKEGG

Molecule	stoichiometry N [1]	Kd [2] [nM]	koff [3] [s⁻¹]
p15 protein of African swine fever virus (from UniProt Q65179 1-158) (natural protein)	3 and 6		
B1		6.39	0.000503

— article PMC12578283 (Protein & Cell, 2025)
